{"source": "patent US20160279215A1", "about": "“NOVEL PEPTIDES AND COMBINATION OF PEPTIDES FOR USE IN IMMUNOTHERAPY AGAINST VARIOUS TUMORS” (immatics biotechnologies GmbH, priority 2015, published 2016)", "key": {"[1]": {"target": "T1, HLA-A*02:01 (human)", "T1 construct": "MHC monomers captured on streptavidin plates; the UV-sensitive peptide is cleaved and exchanged with the test peptide; also called peptide-receptive MHC molecules; MHC class I", "assay": "UV ligand-exchange ELISA (anti-b2m); ++++ = exchange yield >=75%", "from_the_text": "(§1) Candidate peptides for T cell based therapies according to the present invention were further tested for their MHC binding capacity (affinity). The individual peptide-MHC complexes were produced by UV-ligand exchange, where a UV-sensitive peptide is cleaved upon UV-irradiation, and exchanged with the peptide of interest as analyzed. Only peptide candidates that can effectively bind and stabilize the peptide-receptive MHC molecules prevent dissociation of the MHC complexes. To determine the yield of the exchange reaction, an ELISA was performed based on the detection of the light chain (β2m) of stabilized MHC complexes. The assay was performed as generally described in Rodenko et al. (Rodenko et al., 2006).\n(§2) 96 well MAXISorp plates (NUNC) were coated over night with 2 ug/ml streptavidin in PBS at room temperature, washed 4× and blocked for 1 h at 37° C. in 2% BSA containing blocking buffer. Refolded HLA-A*02:01/MLA-001 monomers served as standards, covering the range of 15-500 ng/ml. Peptide-MHC monomers of the UV-exchange reaction were diluted 100 fold in blocking buffer. Samples were incubated for 1 h at 37° C., washed four times, incubated with 2 ug/ml HRP conjugated anti-β2m for 1 h at 37° C., washed again and detected with TMB solution that is stopped with […]. Absorption was measured at 450 nm. Candidate peptides that show a high exchange yield (preferably higher than 50%, most preferred higher than 75%) are generally preferred for a generation and production of antibodies or fragments thereof, and/or T cell receptors or fragments thereof, as they show sufficient avidity to the MHC molecules and prevent dissociation of the MHC complexes."}, "[2]": {"target": "T1, HLA-A*02:01", "assay": "UV ligand-exchange ELISA (anti-b2m); + = exchange yield >=10%", "from_the_text": "as §1, §2"}}}
{"binder": "RLFEEVLGV", "values": [{"measurement": "peptide exchange yield", "setting": "[1]", "value": "≥ 75", "unit": "%"}]}
{"binder": "SEMEELPSV", "values": [{"measurement": "peptide exchange yield", "setting": "[2]", "value": "10 to 20", "unit": "%"}]}
{"binder": "KLQEKIQEL", "values": [{"measurement": "peptide exchange yield", "setting": "[1]", "value": "≥ 75", "unit": "%"}]}
{"binder": "AQHLSTLLL", "values": [{"measurement": "peptide exchange yield", "setting": "[2]", "value": "10 to 20", "unit": "%"}]}
{"binder": "VLLNEILEQV", "values": [{"measurement": "peptide exchange yield", "setting": "[1]", "value": "≥ 75", "unit": "%"}]}
{"binder": "GPGIFPPPPPQP", "values": [{"measurement": "peptide exchange yield", "setting": "[2]", "value": "10 to 20", "unit": "%"}]}
{"binder": "SLVSWQLLL", "values": [{"measurement": "peptide exchange yield", "setting": "[1]", "value": "≥ 75", "unit": "%"}]}
{"binder": "QTAPEEAFIKL", "values": [{"measurement": "peptide exchange yield", "setting": "[2]", "value": "10 to 20", "unit": "%"}]}
{"binder": "GLLDCPIFL", "values": [{"measurement": "peptide exchange yield", "setting": "[1]", "value": "≥ 75", "unit": "%"}]}
{"binder": "GLDAFRIFL", "values": [{"measurement": "peptide exchange yield", "setting": "[1]", "value": "≥ 75", "unit": "%"}]}
{"binder": "FLLEREQLL", "values": [{"measurement": "peptide exchange yield", "setting": "[1]", "value": "≥ 75", "unit": "%"}]}
{"binder": "FLNAIETAL", "values": [{"measurement": "peptide exchange yield", "setting": "[1]", "value": "≥ 75", "unit": "%"}]}
{"binder": "GLLPSAESIKL", "values": [{"measurement": "peptide exchange yield", "setting": "[1]", "value": "≥ 75", "unit": "%"}]}
{"binder": "NLLDENVCL", "values": [{"measurement": "peptide exchange yield", "setting": "[1]", "value": "≥ 75", "unit": "%"}]}
